Literature values as cited in PMC4618177.
Where two headings read alike, the source gives them in different places.

Columns and labels:
[1] = molecular target: IAA17 PB1 (Arabidopsis thaliana) (UniProt P93830)
[2] = molecular target: ARF5 PB1 (Arabidopsis thaliana) (UniProt P93024)
[3] = molecular target: IAA17 PB1 (Arabidopsis thaliana) (UniProt P93830); remark: listed apart in the source

Kd [1] | Kd [2] | Kd [3] | Substance
6600 nM |  |  | IAA17 PB1 (from UniProt P93830)
 | 860 nM | 73 nM | ARF5 PB1 (from UniProt P93024)
